# B1: human methyltransferase-like protein 16 (METTL16), residues 1-562 (enzyme)
# chain: SNAMALSKSMHARNRYKDKPPDFAYLASKYPDFKQHVQINLNGRVSLNFKDPEAVRALTCTLLREDFGLSIDIPLERLIPTVPLRLNYIHWVEDLIGHQDSDKSTLRRGIDIGTGASCIYPLLGATLNGWYFLATEVDDMCFNYAKKNVEQNNLSDLIKVVKVPQKTLLMDALKEESEIIYDFCMCNPPFFANQLEAKGVNSRNPRRPPPSSVNTGGITEIMAEGGELEFVKRIIHDSLQLKKRLRWYSCMLGKKCSLAPLKEELRIQGVPKVTYTEFCQGRTMRWALAWSFYDDVTVPSPPSKRRKLEKPRKPITFVVLASVMKELSLKASPLRSETAEGIVVVTTWIEKILTDLKVQHKRVPCGKEEVSLFLTAIENSWIHLRRKKRERVRQLREVPRAPEDVIQALEEKKPTPKESGNSQELARGPQERTPCGPALREGEAAAVEGPCPSQESLSQEENPEPTEDERSEEKGGVEVLESCQGSSNGAQDQEASEQFGSPVAERGKRLPGVAGQYLFKCLINVKKEVDDALVEMHWVEGQNRDLMNQLCTYIRNQIFRLVAVN
# notes: Ser-Asn-Ala linker encoded in the pMCSG68 vector, between the TEV protease cleavage site and residue 1; METTL16, human, UniProt Q86W50, residues 1-562; also called full-length METTL16; source: E. coli BL21 Gold, purified (HisTrap HP, TEV cleavage, SEC); not shown: His6, N-terminal, cleaved
# Molecular target: the molecule itself
# Assay: SEC; analytical SEC on Superdex 200 10/300 GL; samples ~21 µM in 100 µl; 25 mM HEPES pH 7.5, 100 mM KCl, 50 mM NaCl, 1 mM TCEP, 1 mM MgCl2; molecular weights from a standard curve
protein,measurement,value
B1,stoichiometry N,2

# Reference: publication PMC5871880, “Structural insights into the RNA methyltransferase domain of METTL16” (Scientific Reports, 2018)
